Four molecules from paper doi:10.1101/2025.08.24.672003, “Structural characterization of MAM01 and other cost-effective engineered monoclonal antibodies for malaria prevention” (bioRxiv, 2025) can be followed below.

Test [1] has as its target T1, PfCSP minor repeat region peptide, biotinylated (NVDPNANPNVDPNANPNVDP) (Plasmodium falciparum, biotinylated (end not stated)).
T1 peptide: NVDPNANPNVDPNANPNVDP
The test is described as follows: BLI. (BLI is a label-free optical method that tracks binding on a fibre tip over time.)

Test [2] deals with T2, PfCSP junctional region peptide, biotinylated (NPDPNANPNVDPNANP) (Plasmodium falciparum, also: biotin label, end not given here).
T2 peptide: NPDPNANPNVDPNANP
As to the kind of experiment: BLI.

For test [3], the target named is T3, PfCSP major repeat region peptide NPNA3, biotinylated (Plasmodium falciparum, also: biotin label, end not given here).
T3 peptide: NPNANPNANPNA
As to the kind of experiment: BLI.

In test [4] the target is T4, PfCSP N-terminal junctional region peptide, biotinylated (KQPADGNPDPNANPNV) (Plasmodium falciparum 3D7, also: biotinylated, end not given here).
T4 construct: Plasmodium falciparum circumsporozoite protein (PfCSP), N-terminal junctional region; source: synthetic peptide, bought: Innopep Inc
T4 chain: KQPADGNPDPNANPNV
As to the kind of experiment: BLI; biotinylated peptides (10 ug/mL) loaded on streptavidin biosensors; Fabs in solution at 200, 100, 50, 25, 12.5 nM; kinetics buffer 1X PBS, 0.01% BSA, 0.002% Tween 20; 300 s association, 300 s dissociation; Octet Red; 1:1 global fit. As to conditions: both partners purified.

Test [5] concerns the target T5, PfCSP junctional region peptide, biotinylated (NPDPNANPNVDPNANP) (Plasmodium falciparum 3D7, also: biotinylated, end not given here).
T5 construct: Plasmodium falciparum circumsporozoite protein (PfCSP), junctional region; source: synthetic peptide, bought: Innopep Inc
T5 chain: NPDPNANPNVDPNANP
Described as above. The note with it: both partners purified.

Test [6] deals with T6, PfCSP N-terminal junctional region peptide, biotinylated (KQPADGNPDPNANPNV) (Plasmodium falciparum, also: biotin label, end not given here).
T6 peptide: KQPADGNPDPNANPNV
As to the kind of experiment: BLI.

Positions count from the first letter of the chain named. Ends that are not written are not given here.

B1: Fab 224 (antigen-binding fragment of mAb AB000224) (Fab, V domains shown)
VH: EVQLVESGGGLVQPGRSLRLPCTASGFSFGDHAMSWVRQAPGKGLEWVGFIRKTTYGATTHYAAAVRGRFTISRDDSKSIVYLQMNSLKTEDTAVYFCTRVQLDYGPGYQYYGMDVWGQGTTVTVSS
VL: ESVLTQPPSVSGAPGQRVTISCTGMNSNIGAGYDVYWYQQLPGRAPKLLIYGNSNRPSGVPDRFSGSRSGTSASLAITGLQAEDEADYYCQSYDTSLNGWAFGGGTKLTVL
notes: Fab 224 heavy chain (IGHV3-49) is in PDB 6WFY (cited) and PDB 9NOB (apo, deposited here); Fab 224 light chain (IGLV1-40) is in PDB 6WFY (cited) and PDB 9NOB (apo, deposited here); IGHV3-49/IGLV1-40; the expression methods name only the Fab genes of MAM01, 7088 and MS-1805, not Fab 224
For the molecule B1, the Kd (commonly the constant that tells how readily two partners part at equilibrium) was 2.9 nM in test [1], 72 nM in test [2] and 3.5 nM in test [3]. In addition, in test [4], the binding result is recorded as “no binding (tested: 200 nM)”.

B2: Fab MAM01 (engineered AB000224) (Fab, V domains shown)
VH: B1 VH with P21S, I80T, T90A, T99A
VL: B1 VL with E1Q, R44T
notes: as the heavy chain of m1 (Fab 224, PDB 6WFY) with the stated framework changes (Kabat numbering); as the light chain of m1 (Fab 224, PDB 6WFY) with the stated changes (Kabat numbering); Fab only; the LS mutations of the Fc are not part of it; also called MS-1797; MAM01 Fab; source: ExpiCHO cells, purified (HiTrap Protein G HP, size exclusion chromatography)
Regarding B2, the figures for the Kd in test [1], in test [3] and in test [5] were 3.5 nM, 4.1 nM and 108 nM, respectively. In addition, the binding result in test [4] is listed as “no binding (tested: 200 nM)”.

B3: Fab MS-1805 (engineered AB007088) (Fab, V domains shown)
VH: QVQLVESGGGVVQPGRSLRLSCAASGFTFNTYGMHWVRQAPGKGLEWVAIIWYDGSQKYYADSVQGRFTISRDNHKNTLYLQMNSLRAEDTAVYFCVRVRFSVGPHGSAFDLWGQGTMVTVSS
VL: GVQMTQSPSTLSASVGDRVTLTCRASQSISSWLAWYQQKPGKAPKLLIYDASSLESGVPSRFSGSGSGTEFTLTISSLQPDDFATYYCQQYNSYSFWTFGQGTKVEIK
As to B3, the equilibrium dissociation constant (Kd) in test [6] was 23 nM; in test [1] it was 28 nM; in test [2], 20 nM; in test [3] it was 25 nM.

B4: Fab 7088 (antigen-binding fragment of mAb AB007088) (Fab, V domains shown)
VH: B3 VH with T28A, A40T, T69I, Y80S, S85G, T120I
VL: B3 VL
As to B4, the Kd in test [6] was 15 nM; in test [1], 20 nM; in test [2] it was 16 nM; in test [3] it was 15 nM.
